Measured values: patent publication US20240279344A1 (CDR LIFE, published 2024)

Biological target: T1, HLA-A2/MAGE-A4 complex, recombinant (HLA-A*02:01 extracellular domain, human b2m, MAGE-A4 peptide 230-239 …) (human, UniProt P04439 25-299 at identity 0.94); P61769 21-119)
T1 construct: also called MAGE-A4 pMHC; MAGE-A4/HLA-A2 complex
Assay: SPR, monovalent

| Kd [nM] | Binder |
| --- | --- |
| 2.1 | M1139 (bispecific antibody, V domains shown, Variant of humanized M0763; tested in SPR as anti-CD3 Fab x anti-MAGE-A4 scFv bispecific) VH: EVQLLESGGGSVQPGGSLRLSCTVSGFSLSNYAMSWVRQAPGKGLEWIGIVSSGGTTYAASWAKGRFTISKDTSKNTVYLQMNSLRAEDTASYYCAKDLYYGPTTYSAFNLWGQGTSVTVSS VL: SYELTQPPSVSVSPGQTASITCTADTLSRSYASWYQQKPGQSPVLVIYRDTSRPSGIPERFSGSNSGNTATLTISGTQAMDEADYYCATRPSSGSNFQLFGGGTKLTVL |
| 0.09 | M1297 (bispecific antibody, V domains shown, Variant of humanized M0763; tested in SPR as anti-CD3 Fab x anti-MAGE-A4 scFv bispecific) VH: EVQLLESGGGSVQPGGSLRLSCTVSGFSLSNYAMSWVRQAPGKGLEWIGIVSSGGTTYYASWAKGRFTISKDTSKNTVYLQMNSLRAEDTASYYCAKDLYYGPSTYFVANLWGQGTSVTVSS VL: SYELTQPPSVSVSPGQTASITCTADTLSRSYASWYQQKPGQSPVLVIYRDTSRPSGIPERFSGSNSGNTATLTISGTQAMDEADYYCATRPSSGSNFQLFGGGTKLTVL |
| 3.2 | M1169 (bispecific antibody, V domains shown, Variant of humanized M0763; tested in SPR as anti-CD3 Fab x anti-MAGE-A4 scFv bispecific) VH: EVQLLESGGGSVQPGGSLRLSCTVSGFSLSNYAMSWVRQAPGKGLEWIGIVSSGGTTYYASWAKGRFTISKDTSKNTVYLQMNSLRAEDTASYYCAKDLYYGPTTYSAANLWGQGTSVTVSS VL: SYELTQPPSVSVSPGQTASITCTADTLSRSYASWYQQKPGQSPVLVIYRDTSRPSGIPERFSGSNSGNTATLTISGTQAMDEADYYCATRPSSGSNFVLFGGGTKLTVL |
| 2.9 | M1142 (bispecific antibody, V domains shown, Variant of humanized M0763; tested in SPR as anti-CD3 Fab x anti-MAGE-A4 scFv bispecific) VH: EVQLLESGGGSVQPGGSLRLSCTVSGFSLSNYAMSWVRQAPGKGLEWIGIVSSGGTTYYASAAKGRFTISKDTSKNTVYLQMNSLRAEDTASYYCAKDLYYGPTTYSAFNLWGQGTSVTVSS VL: SYELTQPPSVSVSPGQTASITCTADTLSRSYASWYQQKPGQSPVLVIYRDTSRPSGIPERFSGSNSGNTATLTISGTQAMDEADYYCATRPSSGSNFQLFGGGTKLTVL |
| 1.2 | M1141 (bispecific antibody, V domains shown, Variant of humanized M0763; tested in SPR as anti-CD3 Fab x anti-MAGE-A4 scFv bispecific) VH: EVQLLESGGGSVQPGGSLRLSCTVSGFSLSNYAMSWVRQAPGKGLEWIGIVSSGGTTYYAAWAKGRFTISKDTSKNTVYLQMNSLRAEDTASYYCAKDLYYGPTTYSAFNLWGQGTSVTVSS VL: SYELTQPPSVSVSPGQTASITCTADTLSRSYASWYQQKPGQSPVLVIYRDTSRPSGIPERFSGSNSGNTATLTISGTQAMDEADYYCATRPSSGSNFQLFGGGTKLTVL |
| 1.5 | M1172 (bispecific antibody, V domains shown, Variant of humanized M0763; tested in SPR as anti-CD3 Fab x anti-MAGE-A4 scFv bispecific) VH: EVQLLESGGGSVQPGGSLRLSCTVSGFSLSNYAMSWVRQAPGKGLEWIGIVSSGGTTYYASWAKGRFTISKDTSKNTVYLQMNSLRAEDTASYYCAKDLYYGPTTYSAPNLWGQGTSVTVSS VL: SYELTQPPSVSVSPGQTASITCTADTLSRSYASWYQQKPGQSPVLVIYRDTSRPSGIPERFSGSNSGNTATLTISGTQAMDEADYYCATRPSSGSNFQLFGGGTKLTVL |
| 2.55 | M1253 (bispecific antibody, V domains shown, Variant of humanized M0763; tested in SPR as anti-CD3 Fab x anti-MAGE-A4 scFv bispecific) VH: EVQLLESGGGSVQPGGSLRLSCTVSGFSLSNYAMSWVRQAPGKGLEWIGIVSSGGTTYYASWAKGRFTISKDTSKNTVYLQMNSLRAEDTASYYCAKDLYYGPTTYSAANLWGQGTSVTVSS VL: SYELTQPPSVSVSPGQTASITCTADTLSRSYASWYQQKPGQSPVLVIYRDTSRPSGIPERFSGSNSGNTATLTISGTQAMDEADYYCATRPSSGSNFQAFGGGTKLTVL |
| 4.4 | M1171 (bispecific antibody, V domains shown, Variant of humanized M0763; tested in SPR as anti-CD3 Fab x anti-MAGE-A4 scFv bispecific) VH: EVQLLESGGGSVQPGGSLRLSCTVSGFSLSNYAMSWVRQAPGKGLEWIGIVSSGGTTYYASWAKGRFTISKDTSKNTVYLQMNSLRAEDTASYYCAKDLYYGPTTYSALNLWGQGTSVTVSS VL: SYELTQPPSVSVSPGQTASITCTADTLSRSYASWYQQKPGQSPVLVIYRDTSRPSGIPERFSGSNSGNTATLTISGTQAMDEADYYCATRPSSGSNFQLFGGGTKLTVL |
| 2.8 | M1140 (bispecific antibody, V domains shown, Variant of humanized M0763; tested in SPR as anti-CD3 Fab x anti-MAGE-A4 scFv bispecific) VH: EVQLLESGGGSVQPGGSLRLSCTVSGFSLSNYAMSWVRQAPGKGLEWIGIVSSGGTTYYSSWAKGRFTISKDTSKNTVYLQMNSLRAEDTASYYCAKDLYYGPTTYSAFNLWGQGTSVTVSS VL: SYELTQPPSVSVSPGQTASITCTADTLSRSYASWYQQKPGQSPVLVIYRDTSRPSGIPERFSGSNSGNTATLTISGTQAMDEADYYCATRPSSGSNFQLFGGGTKLTVL |
| 2.3 | M1144 (bispecific antibody, V domains shown, Variant of humanized M0763; tested in SPR as anti-CD3 Fab x anti-MAGE-A4 scFv bispecific) VH: EVQLLESGGGSVQPGGSLRLSCTVSGFSLSNYAMSWVRQAPGKGLEWIGIVSSGGTTYYASWAAGRFTISKDTSKNTVYLQMNSLRAEDTASYYCAKDLYYGPTTYSAFNLWGQGTSVTVSS VL: SYELTQPPSVSVSPGQTASITCTADTLSRSYASWYQQKPGQSPVLVIYRDTSRPSGIPERFSGSNSGNTATLTISGTQAMDEADYYCATRPSSGSNFQLFGGGTKLTVL |
| 8.3 | M1178 (bispecific antibody, V domains shown, Variant of humanized M0763; tested in SPR as anti-CD3 Fab x anti-MAGE-A4 scFv bispecific) VH: EVQLLESGGGSVQPGGSLRLSCTVSGFSLSNYAMSWVRQAPGKGLEWIGIVSSGGTTYYASWAKGRFTISKDTSKNTVYLQMNSLRAEDTASYYCAKDLYYGPTTYSAANLWGQGTSVTVSS VL: SYELTQPPSVSVSPGQTASITCTADTLSRSYASWYQQKPGQSPVLVIYRDTSRPSGIPERFSGSNSGNTATLTISGTQAMDEADYYCQARPSSGSNFQLFGGGTKLTVL |
| 4.2 | M1177 (bispecific antibody, V domains shown, Variant of humanized M0763; tested in SPR as anti-CD3 Fab x anti-MAGE-A4 scFv bispecific) VH: EVQLLESGGGSVQPGGSLRLSCTVSGFSLSNYAMSWVRQAPGKGLEWIGIVSSGGTTYYASWAKGRFTISKDTSKNTVYLQMNSLRAEDTASYYCAKDLYYGPTTYSAANLWGQGTSVTVSS VL: SYELTQPPSVSVSPGQTASITCTADTLSRSYASWYQQKPGQSPVLVIYRDTSRPSGIPERFSGSNSGNTATLTISGTQAMDEADYYCATRPSSGSNTVVFGGGTKLTVL |
| 2.4 | M1143 (bispecific antibody, V domains shown, Variant of humanized M0763; tested in SPR as anti-CD3 Fab x anti-MAGE-A4 scFv bispecific) VH: EVQLLESGGGSVQPGGSLRLSCTVSGFSLSNYAMSWVRQAPGKGLEWIGIVSSGGTTYYASWSKGRFTISKDTSKNTVYLQMNSLRAEDTASYYCAKDLYYGPTTYSAFNLWGQGTSVTVSS VL: SYELTQPPSVSVSPGQTASITCTADTLSRSYASWYQQKPGQSPVLVIYRDTSRPSGIPERFSGSNSGNTATLTISGTQAMDEADYYCATRPSSGSNFQLFGGGTKLTVL |
| 3.9 | M1202 (bispecific antibody, V domains shown, Variant of humanized M0763; tested in SPR as anti-CD3 Fab x anti-MAGE-A4 scFv bispecific) VH: EVQLLESGGGSVQPGGSLRLSCTVSGFSLSNYAMSWVRQAPGKGLEWIGIVSSGGTTYYASWAKGRFTISKDTSKNTVYLQMNSLRAEDTASYYCAKDLYYGPTTYSSANLWGQGTSVTVSS VL: SYELTQPPSVSVSPGQTASITCTADTLSRSYASWYQQKPGQSPVLVIYRDTSRPSGIPERFSGSNSGNTATLTISGTQAMDEADYYCATRPSSGSNFQLFGGGTKLTVL |
| 6 | M1176 (bispecific antibody, V domains shown, Variant of humanized M0763; tested in SPR as anti-CD3 Fab x anti-MAGE-A4 scFv bispecific) VH: EVQLLESGGGSVQPGGSLRLSCTVSGFSLSNYAMSWVRQAPGKGLEWIGIVSSGGTTYYASWAKGRFTISKDTSKNTVYLQMNSLRAEDTASYYCAKDLYYGPTTYSAANLWGQGTSVTVSS VL: SYELTQPPSVSVSPGQTASITCTADTLSRSYASWYQQKPGQSPVLVIYRDTSRPSGIPERFSGSNSGNTATLTISGTQAMDEADYYCATRPSSGSVFQLFGGGTKLTVL |
| 2.1 | M1145 (bispecific antibody, V domains shown, Variant of humanized M0763; tested in SPR as anti-CD3 Fab x anti-MAGE-A4 scFv bispecific) VH: EVQLLESGGGSVQPGGSLRLSCTVSGFSLSNYAMSWVRQAPGKGLEWIGIVSSGGTTYYASWAKARFTISKDTSKNTVYLQMNSLRAEDTASYYCAKDLYYGPTTYSAFNLWGQGTSVTVSS VL: SYELTQPPSVSVSPGQTASITCTADTLSRSYASWYQQKPGQSPVLVIYRDTSRPSGIPERFSGSNSGNTATLTISGTQAMDEADYYCATRPSSGSNFQLFGGGTKLTVL |
